Results from patent US20240417458A1 (DISC MEDICINE, published 2024).
Where “and” joins values, the source holds several entries; their conditions need not be identical. Equal entries are not always repeated.

Assays:
[1] = biological target: T1, soluble human RGMc (human, UniProt Q6ZVN8 36-400); test: SPR (BIAcore);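 further: Anti-HJV antibodies, binding affinity to soluble human RGMc measured by BIAcore surface plasmon resonance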
T1 construct: also called huRGMc; soluble hRGMc
T1 sequence: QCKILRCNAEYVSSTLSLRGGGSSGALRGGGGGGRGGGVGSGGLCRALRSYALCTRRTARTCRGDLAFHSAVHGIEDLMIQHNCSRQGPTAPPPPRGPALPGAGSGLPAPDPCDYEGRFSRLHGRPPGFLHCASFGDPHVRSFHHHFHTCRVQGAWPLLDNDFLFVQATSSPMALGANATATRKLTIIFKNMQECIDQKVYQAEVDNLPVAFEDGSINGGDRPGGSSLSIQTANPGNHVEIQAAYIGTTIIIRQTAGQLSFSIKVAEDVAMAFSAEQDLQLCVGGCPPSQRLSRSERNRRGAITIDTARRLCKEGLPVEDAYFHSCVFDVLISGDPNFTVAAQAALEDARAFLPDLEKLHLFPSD
Experimental: (§1) Binding affinities of the anti-HJV antibodies to soluble human RGMa, Rat RGMa and human RGMc were measured by BIAcore analysis.

[2] = biological target: T1, soluble human RGMc; test: SPR (BIAcore), RGM antigen in solution
[3] = biological target: T2, Human RGMb (human, UniProt Q6NW40 46-413, limits assumed); test: SPR (BIAcore), RGM antigen in solution
T2 construct: also called repulsive guidance molecule B
T2 sequence (looked up): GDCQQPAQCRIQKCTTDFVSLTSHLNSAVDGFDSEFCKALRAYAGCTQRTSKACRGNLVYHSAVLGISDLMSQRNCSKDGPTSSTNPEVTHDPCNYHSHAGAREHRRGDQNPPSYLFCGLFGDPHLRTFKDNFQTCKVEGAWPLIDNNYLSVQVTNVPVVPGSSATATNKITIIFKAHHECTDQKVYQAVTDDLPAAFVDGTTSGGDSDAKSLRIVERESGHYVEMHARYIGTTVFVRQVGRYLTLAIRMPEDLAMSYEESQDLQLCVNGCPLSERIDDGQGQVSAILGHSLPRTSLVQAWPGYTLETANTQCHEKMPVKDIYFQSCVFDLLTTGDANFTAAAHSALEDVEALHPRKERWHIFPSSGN

[4] = biological target: T3, membrane-bound human RGMc (human, UniProt Q6ZVN8 36-400); test: cell-based or functional assay
T3 sequence: T1 sequence

[5] = biological target: T3, membrane-bound human RGMc; test: cell-based or functional assay; remark: listed apart in the source
[6] = biological target: T4, membrane-bound human RGMa (human, UniProt Q96B86 169-424); test: cell-based or functional assay
T4 sequence (looked up): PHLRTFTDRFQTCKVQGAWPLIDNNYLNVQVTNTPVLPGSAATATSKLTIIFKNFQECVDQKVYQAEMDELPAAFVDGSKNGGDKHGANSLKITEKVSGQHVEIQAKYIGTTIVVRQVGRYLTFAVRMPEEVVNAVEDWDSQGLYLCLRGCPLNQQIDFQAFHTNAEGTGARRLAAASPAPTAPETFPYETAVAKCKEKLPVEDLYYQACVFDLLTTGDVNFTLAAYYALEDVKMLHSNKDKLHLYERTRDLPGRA

[7] = biological target: T5, soluble human RGMa (human, UniProt Q96B86 48-422, limits assumed); test: SPR; method not named in Example 2
T5 construct: Soluble antigen in BIAcore; also called huRGMa; repulsive guidance molecule A
T5 sequence (looked up): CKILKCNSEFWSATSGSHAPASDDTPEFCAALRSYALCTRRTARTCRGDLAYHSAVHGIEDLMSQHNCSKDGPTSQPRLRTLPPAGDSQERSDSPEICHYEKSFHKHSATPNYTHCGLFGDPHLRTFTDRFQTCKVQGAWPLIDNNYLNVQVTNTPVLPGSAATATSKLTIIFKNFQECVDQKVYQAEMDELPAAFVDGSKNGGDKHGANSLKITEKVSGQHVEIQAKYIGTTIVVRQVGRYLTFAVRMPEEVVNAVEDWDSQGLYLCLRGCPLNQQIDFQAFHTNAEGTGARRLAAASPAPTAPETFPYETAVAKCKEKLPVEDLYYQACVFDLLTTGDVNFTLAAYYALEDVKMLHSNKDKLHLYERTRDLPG

[8] = biological target: T1, soluble human RGMc; test: SPR; method not named in Example 2
[9] = biological target: T6, soluble rat RGMa (rat, UniProt D4A188 48-421); test: SPR (BIAcore);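 further: binding kinetics and affinity of anti-HJV antibodies toward soluble rat RGMa, determined by SPR on a BIAcore instrument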
T6 construct: Soluble antigen in BIAcore
T6 sequence: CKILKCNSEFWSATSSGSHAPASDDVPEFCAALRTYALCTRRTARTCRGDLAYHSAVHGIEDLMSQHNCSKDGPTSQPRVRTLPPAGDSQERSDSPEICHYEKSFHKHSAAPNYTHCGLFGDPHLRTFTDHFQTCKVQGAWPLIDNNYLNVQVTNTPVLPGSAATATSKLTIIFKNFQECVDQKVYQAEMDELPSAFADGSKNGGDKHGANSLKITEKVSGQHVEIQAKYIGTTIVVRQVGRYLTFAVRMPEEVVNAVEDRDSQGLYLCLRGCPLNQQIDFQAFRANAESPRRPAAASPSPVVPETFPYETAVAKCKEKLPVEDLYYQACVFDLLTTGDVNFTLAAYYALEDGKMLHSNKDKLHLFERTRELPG
Experimental: as §1

[10] = biological target: T3, membrane-bound human RGMc; test: cell-based or functional assay; remark: listed apart in the source
[11] = biological target: T1, soluble human RGMc; test: SPR (BIAcore), soluble hRGMc; summary table
[12] = biological target: T7, FcRn; test: SPR (BIAcore) at pH 6.0
T7 construct: also called neonatal Fc receptor

[13] = biological target: T5, soluble human RGMa; test: SPR (BIAcore);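 further: Anti-HJV antibodies tested for binding against soluble human RGMa by surface plasmon resonance on a BIAcore instrument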
Experimental: as §1

- Kd [1]: 0.105 nM
- koff [1]: 0.00039 s⁻¹
- kon [1]: 3.95e+06 M⁻¹ s⁻¹
- Kd [2]: 0.12 nM
- koff [2]: 0.00029 s⁻¹
- kon [2]: 2.5e+06 M⁻¹ s⁻¹
- binding result [3]: no binding
- IC50 (nM), BMP reporter assay for RGMc (BRE-Luc, HEK293) [4]: 0.377 nM
- IC50 (read off the curve) [5]: ~0.4 nM
- IC50 (nM), BMP reporter assay for RGMa [6]: ~56.5 nM
- Kd [7]: 0.078 nM
- koff [7]: 4.2e-05 s⁻¹
- kon [7]: 540000 M⁻¹ s⁻¹
- Kd [8]: 0.11 nM
- koff [8]: 0.00032 s⁻¹
- kon [8]: 3e+06 M⁻¹ s⁻¹
- Kd [9]: < 0.0015 nM
- koff [9]: < 1e-06 s⁻¹
- kon [9]: 660000 M⁻¹ s⁻¹
- Potency on membrane hRGMc (RGMc/BMP reporter assay), IC50 [10]: 0.37 nM
- Kd [11]: 0.105 nM
- koff [11]: 0.00039 s⁻¹
- kon [11]: 3.95e+06 M⁻¹ s⁻¹
- Kd [12]: 2950 nM and 2960 nM
- Kd [13]: 0.031 nM
- koff [13]: 2.7e-05 s⁻¹
- kon [13]: 870000 M⁻¹ s⁻¹
B1: hHA-008 (antibody, human IgG1, kappa, L234A L235A)
heavy: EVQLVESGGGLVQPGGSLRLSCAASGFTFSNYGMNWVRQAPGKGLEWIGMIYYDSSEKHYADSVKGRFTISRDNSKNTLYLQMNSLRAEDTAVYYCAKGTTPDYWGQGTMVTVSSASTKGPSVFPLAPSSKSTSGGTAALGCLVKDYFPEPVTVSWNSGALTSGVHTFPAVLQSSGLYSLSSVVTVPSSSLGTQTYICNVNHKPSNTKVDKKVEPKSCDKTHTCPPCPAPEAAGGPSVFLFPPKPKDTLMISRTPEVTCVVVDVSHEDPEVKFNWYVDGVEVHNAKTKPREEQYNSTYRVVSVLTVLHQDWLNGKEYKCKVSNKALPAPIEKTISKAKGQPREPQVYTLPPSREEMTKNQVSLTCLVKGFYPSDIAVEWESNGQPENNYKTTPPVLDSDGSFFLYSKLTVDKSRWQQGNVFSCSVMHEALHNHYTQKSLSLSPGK
light: DVVLTQSPLSLPVTLGQPASISCRSSQSLEESDGYTFLHWFQQRPGQSPRLLIYEVSTRFSGVPDRFSGSGSGTDFTLKISRVEAEDVGVYYCFQATHDPLTFGQGTKLEIKRTVAAPSVFIFPPSDEQLKSGTASVVCLLNNFYPREAKVQWKVDNALQSGNSQESVTEQDSKDSTYSLSSTLTLSKADYEKHKVYACEVTHQGLSSPVTKSFNRGEC
notes: hIgG1 L234A, L235A, kappa; also called hHA-008 (hIgG1mut(LALA)/k)
